First the molecules themselves.
B1: AURKA-Venus WT [human] / TPX2 [human (endogenous in U2OS)] (parent complex)
chain 1: MDRSKENCISGPVKATAPVGGPKRVLVTQQFPCQNPLPVNSGQAQRVLCPSNSSQRIPLQAQKLVSSHKPVQNQKQKQLQATSVPHPVSRPLNNTQKSKQPLPSAPENNPEEELASKQKNEESKKRQWALEDFEIGRPLGKGKFGNVYLAREKQSKFILALKVLFKAQLEKAGVEHQLRREVEIQSHLRHPNILRLYGYFHDATRVYLILEYAPLGTVYRELQKLSKFDEQRTATYITELANALSYCHSKRVIHRDIKPENLLLGSAGELKIADFGWSVHAPSSRRTTLCGTLDYLPPEMIEGRMHDEKVDLWSLGVLCYEFLVGKPPFEANTYQETYKRISRVEFTFPDFVTEGARDLISRLLKHNPSQRPMLREVLEHPWITANSSKPSNCQNKESASKQS
chain 2: MSQVKSSYSYDAPSDFINFSSLDDEGDTQNIDSWFEEKANLENKLLGKNGTGGLFQGKTPLRKANLQQAIVTPLKPVDNTYYKEAEKENLVEQSIPSNACSSLEVEAAISRKTPAQPQRRSLRLSAQKDLEQKEKHHVKMKAKRCATPVIIDEILPSKKMKVSNNKKKPEEEGSAHQDTAEKNASSPEKAKGRHTVPCMPPAKQKFLKSTEEQELEKSMKMQQEVVEMRKKNEEFKKLALAGIGQPVKKSVSQVTKSVDFHFRTDERIKQHPKNQEEYKEVNFTSELRKHPSSPARVTKGCTIVKPFNLSQGKKRTFDETVSTYVPLAQQVEDFHKRTPNRYHLRSKKDDINLLPSKSSVTKICRDPQTPVLQTKHRARAVTCKSTAELEAEELEKLQQYKFKARELDPRILEGGPILPKKPPVKPPTEPIGFDLEIEKRIQERESKKKTEDEHFEFHSRPCPTKILEDVVGVPEKKVLPITVPKSPAFALKNRIRMPTKEDEEEDEPVVIKAQPVPHYGVPFKPQIPEARTVEICPFSFDSRDKERQLQKEKKIKELQKGEVPKFKALPLPHFDTINLPEKKVKNVTQIEPFCLETDRRGALKAQTWKHQLEEELRQQKEAACFKARPNTVISQEPFVPKKEKKSVAEGLSGSLVQEPFQLATEKRAKERQELEKRMAEVEAQKAQQLEEARLQEEEQKKEELARLRRELVHKANPIRKYQGLEIKSSDQPLTVPVSPKFSTRFHC

Our source for the response values is publication PMC9713472 (2022).

The experiment covers variants of B1. The experiment can be described thus: in situ proximity ligation assay (isPLA); mitotic U2OS cells, endogenous TPX2, n ≥ 10 cells; read off a plot.
With chain 1 R371A, chain 1 L374A, the response is around 1.3 AU.
chain 1 L374I: the response is around 3.7 AU.
The same measure for chain 1 R371A: around 3 AU; for chain 1 S155R: around 2.6 AU.
